Where two headings read alike, the source gives them in different places.
How the values were obtained:
Assay in all cases: radioligand binding
[1] = biological target: self-assembling peptide AcN-(KLDL)3-CNH2
[2] = biological target: self-assembling peptide AcN-(KLDL)3-CNH2; remark: listed apart in the source
[3] = biological target: self-assembling peptide AcN-(KLDL)3-CNH2; remark: listed apart in the source

Substance: ^125I-TGF-β1 (radiolabelled transforming growth factor β1) (ligand)
- percent of loaded released (cumulative), day 3 [1]: 13 to 16%
- percent of loaded released (cumulative), day 7 [1]: 25%
- percent of loaded released (cumulative), day 14 [1]: 27%
- percent of loaded released (cumulative), day 21 [1]: 32%
- percent of loaded retained in the hydrogel, day 21 [1]: 68%
- uptake ratio (concentration in gel / concentration in bath) [1]: 18.5
- uptake ratio (concentration in gel / concentration in bath) [2]: 85.8
- percent of loaded released (cumulative), day 21 [3]: 44%
- percent of loaded retained in the hydrogel, day 21 [3]: 56%
